In PMC4754747, “A single residue substitution accounts for the significant difference in thermostability between two isoforms of human cytosolic creatine kinase” (Scientific Reports, 2016):

Molecular target: the molecule itself
Experiment: SEC; gel filtration on Superdex 200 10/300 GL (AKTA purifier) of thermally inactivated samples; heated at 45 °C (thermal inactivation: 0.2 mg/ml enzyme in 5 mM Tris-HCl, pH 8.0, 10 min); dimer to monomers

| Protein | binding result | stoichiometry N |
| --- | --- | --- |
| human brain-type creatine kinase homodimer (hBBCK) (enzyme, creatine kinase, brain type (B subunit), human; wild type; also called WT hBBCK; hBCK) not shown | binds |  |
| hBBCK P36L mutant (BP36L) (enzyme, creatine kinase, brain type (B subunit), human, with P36L; Site-directed mutant of m1; details are in the Supplementary Information) not shown |  | 2 |
